We go through one molecule from paper PMC10397247.

For one test, the target named is T1, P4.
T1 chain: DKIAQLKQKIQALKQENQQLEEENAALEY
The test can be described thus: two-hybrid library CCmax.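 Note: natural log of median RNA to DNA barcode read ratio; higher means stronger binding.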 As to conditions: mean of both orientations.

For a further test, the target named is T2, P4SN.
T2 chain: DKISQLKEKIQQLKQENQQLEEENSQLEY
Put plainly: two-hybrid library CCmax.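 Note: natural log of median RNA to DNA barcode read ratio; higher means stronger binding.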 As to conditions: mean of both orientations.

B1: P3 (peptide)
chain: DEIQQLEEEIAQLEQKNAALKEKNQALKY
Regarding B1, the interaction score was 0.871 in the test with P4 and 1.63 in the test with P4SN.
